Where two headings read alike, the source gives them in different places.

Data set [1] relates to Human epithelial cervical cancer (HeLa) cell line. It counts as cell-based. Particulars: HeLa cells. Here is the method: Human epithelial cervical cancer (HeLa) cell line was obtained from American Type Culture Collection (ATCC, Manassas, Va.) and maintained at 37° C. under a 5% carbon dioxide (CO2) atmosphere in Dulbecco's modified eagle medium (DMEM, Gibco) supplemented with 10% fetal bovine serum (FBS), 50 U/mL penicillin, and 50 μg/mL streptomycin. Stock solutions of PAMAM-PEG2000-TIPAA conjugate Compounds 1c-4c were prepared by dissolving 10 mg of each vacuum-dried solid sample in 1.0 mL of deionized water (Millipore Milli-Q) to make a 10 mg/mL solution. Each stock solution was sonicated briefly to ensure homogeneity. Serial dilutions were carried out using serum-free DMEM to prepare samples of the following concentrations: 1, 5, 10, 50, 100, and 500 μg/mL. HeLa cells were seeded in a flat bottomed 96-well plate (Corning Costar, Cambridge, Mass.) at a density of 1×10^3 cells per well and incubated for 24 hours at 37° C. under a 5% CO2 atmosphere to allow cell attachment. Cells were treated with 100 μL of each dilution or 100 μL of serum-free DMEM (as a control) per well and incubated at 37° C. under a 5% CO2 atmosphere for 24, 48, or 72 hours. The formulations were replaced with serum-free DMEM containing 5 mg/mL 3-(4,5-dimethylthiazol-2-yl)-2,5-diphenyltetrazolium bromide (MTT) and cells were incubated for additional 4 hours. MTT was removed by aspiration and DMSO (100 μL) was added to each well to dissolve the formazan crystals [Mosmann, T., J. Immunol. Methods 1983, 65, 55-63]. Assays were carried out in quadruplicates.

Data set [2] is classed as physicochemical. Here is the method: (§1) Sample solutions for in vivo injections as CT contrast agents were prepared by dissolving each PAMAM-PEG2000-TIPAA conjugate (Compound 1c, 2c, 3c, or 4c) at 250 mg/mL in the sterilized 20 mM Tris buffer (242 mg tromethamine and 10 mg EDTA dissolved in 100 mL of deionized water (Millipore Milli-Q), pH 7.4). The resulting solution was sonicated briefly to ensure homogeneity and stored at 4° C., if not used immediately. Before the injection to the animal, the contrast agent solutions were removed from the fridge, warmed to room temperature, and agitated by vortex.
The results of the viscosity (30° C.) and osmolality measurements of the CT contrast media solutions of the present invention are summarized in the following Table 1.
In Table 1, the values are presented as the mean±standard deviation. Five independent measurements were made for each compound under the same conditions, and the mean and standard deviation were calculated after excluding the highest and lowest values (i.e., 3 data).

Data set [3] in a line: Micro-CT 2D X-ray snapshot imaging of contrast media solutions in tubes. Here is the method: Prior to the in vivo injection of CT contrast media (250 mg/mL) including Compounds 1c, 2c, 3c, or 4c of Examples 1 to 4 prepared in the Preparation Step, 2D X-ray snapshot images of these solutions and two commercially available CT contrast media each for human or animal application were obtained using micro-CT to compare their relative X-ray absorption in tubes under the same conditions as a preliminary evaluation.
Overall, eight 250 μL-tubes were prepared each containing the following: 250 μL each of four CT contrast media prepared in the Preparation Step, 250 μL of “Fenestra VC”, 250 μL of “Iobrix”, 250 μL of 20 mM Tris buffer solution (pH 7.4, 0.1 mg/mL EDTA included) as a negative control group, and one empty tube as a negative control group. These eight tubes were then arranged side by side in parallel on the imaging bed of a NFR Polaris-G90 in vivo micro-CT scanner (manufacturer: NanoFocusRay), and 2D X-ray snapshot images were taken [imaging parameters: 60 kVp, 60 μA, 500 ms exposure time, field of view (FOV) 80.00×83.71 mm^2, 1.4× magnification].

A further data set deals with C57BL/6 mice. Briefly: In vivo micro-CT imaging evaluation. Here is the method: Specifically, 6 to 8 weeks old healthy male C57BL/6 mice (Orient Bio, Korea) having the weight typically ranging from 15 g to 22 g were used as small animals. Each mouse was not fed water and food starting from approximately 12 hours before the injection of the contrast medium until the completion of CT imaging at 4 hours post-injection. The mice were fed water and food immediately after the completion of CT imaging at 4 hours post-injection. Before the injection of the contrast media, each mouse was anaesthetized in an induction chamber by administering 3% isoflurane in oxygen for about 5 minutes. Subsequently, the mouse was placed onto the imaging bed of a NFR Polaris-G90 in vivo micro-CT scanner (NanoFocusRay, Korea) lying in a prone position, and then the baseline (i.e., pre-contrast) scan was performed as a negative control group while being anesthesized by administering 1.5% isoflurane in oxygen [imaging parameters: 60 kVp, 60 μA, 500 ms exposure time, 360° scan angle, 600 scan number, 512 slices (i.e., image number); FOV: 80.00×83.71 mm^2 for low resolution whole-body imaging (1.4× magnification), 33.94×35.52 mm^2 for mid resolution chest and abdominal imaging (3.3× magnification), and 26.67×27.90 mm^2 for high resolution brain imaging (4.2× magnification)]. Next, the tail vein of the mouse was expanded by immersing the tail in a warm water for about 30 to 60 seconds while maintaining the mouse under anesthesia by administering 1.5% isoflurane in oxygen, and the corresponding amount of each contrast medium (15 mL/kg for the contrast media including the compounds of Examples 1 to 4, 10 mL/kg for “Fenestra VC”, and 2.5 mL/kg for “Iobrix”) was slowly injected into the tail vein of each mouse. Immediately after the injection of the contrast medium, the mouse was placed onto the imaging bed of a micro-CT scanner lying in a prone position, and the CT scan was performed at the corresponding resolution (low, mid, or high) while being anesthesized by administering 1.5% isoflurane in oxygen. […]

The nature of data set [4]: Dissolving the compound in buffer solution for a contrast medium. It counts as physicochemical. Particulars: concentration appropriate for CT imaging. Here is the method: as §1
[5] abbreviates: incubated for 72 hours, 500 μg/mL, MTT.
[6] abbreviates: 250 mg/mL in 20 mM Tris buffer pH 7.4, mean±standard deviation.
Where [7] appears, read: 30° C., 250 mg/mL in 20 mM Tris buffer pH 7.4, mean±standard deviation.
Setting [8] is: 250 μL in tube, 2D X-ray snapshot, 60 kVp, 60 μA, own media 250 mg/mL.

For the substance “G1 PAMAM-mPEG2000-TIPAA Conjugate [Example 1]”, the cell survival rate in data set [1] (setting [5]) came out at 88.5%. Moreover, in data set [2] (setting [6]), the Osmolality worked out at 464.75 ± 3.59 mOsm/kg. The substance also showed a Viscosity in data set [2] (setting [7]) of 15.32 ± 0.39 mPa · s. In data set [3] (setting [8]), the X-ray transmission intensity was determined as 904.5. Moreover, in the data set on C57BL/6 mice (mice, images at 1 hour after injection), the “amount found in the kidney” value is on record as “a considerable amount thereof was found in the kidney within a relatively short period of time”. In the data set with C57BL/6 mice (mice, tail vein injection, whole-body CT images), the “excretion (route and rate)” value was “mostly through kidney to bladder”.

The substance “G2 PAMAM-mPEG2000-TIPAA Conjugate [Example 2]” gave a cell survival rate in data set [1] (human, 72 h, 500 µg/mL) of 88.4%. In addition, in data set [2] (pH 7.4), the Osmolality was determined as 233.50 ± 9.75 mOsm/kg and the Viscosity turned out to be 16.47 ± 0.80 mPa · s. In addition, the X-ray transmission intensity in data set [3] was 838.0.

In data set [1] (human, 72 h, 500 µg/mL), “G3 PAMAM-mPEG2000-TIPAA Conjugate [Example 3]” returned a cell survival rate of 88.4%. In data set [2] (pH 7.4), this substance registered an Osmolality of 225.75 ± 1.26 mOsm/kg and a Viscosity of 16.15 ± 0.53 mPa · s. Besides, the X-ray transmission intensity in data set [3] is 826.5.

With “G4 PAMAM-mPEG2000-TIPAA Conjugate [Example 4]”, the cell survival rate in data set [1] (setting [5]) amounted to 87.9%. The Osmolality in data set [2] (setting [6]) came to 242.00 ± 4.08 mOsm/kg. The Viscosity in data set [2] (setting [7]) was 16.31 ± 0.61 mPa · s. This substance also came in with a X-ray transmission intensity in data set [3] (setting [8]) of 827.0. For the same substance, in the data set on C57BL/6 mice (during injection), the “thickness of contrast medium solution felt during the injection” value is recorded as “felt thicker than Compound 2c of Example 2 or Compound 3c of Example 3”. Further, the “ease of dissolving in a buffer solution” value in data set [4] is “more difficult to dissolve”.
